From article PMC8710476 (Frontiers in Immunology, 2021)

Biological target: Recombinant SARS-CoV-2 RBD (residues R319–F541) (SARS-CoV-2, UniProt P0DTC2)
Assay: SPR
Conditions: both partners purified

B1: REGN10987 (class III) (antibody, V domains shown)
VH: QVQLVESGGGVVQPGRSLRLSCAASGFTFSNYAMYWVRQAPGKGLEWVAVISYDGSNKYYADSVKGRFTISRDNSKNTLYLQMNSLRTEDTAVYYCASGSDYGDYLLVYWGQGTLVTVSS
VL: QSALTQPASVSGSPGQSITISCTGTSSDVGGYNYVSWYQQHPGKAPKLMIYDVSKRPSGVSNRFSGSKSGNTASLTISGLQSEDEADYYCNSLTSISTWVFGGGTKLTVL
- Kd: < 10 pM
